Legend:
[1] = target: SNARE–αSNAP complex on vesicles (rat | bovine), P60881
[2] = substrate: Nc1ncnc2c1ncn2[C@@H]1O[C@H](COP(=O)(O)OP(=O)(O)OP(=O)(O)O)[C@@H](O)[C@H]1O; assay: ATPase titration, phosphate release by MESG/PNP (ELIPA kit), Hill fit; assay type: biochemical, Cricetulus griseus; conditions: Hill coefficient 0.58 ± 0.09, 5 mM MgCl2, 50 mM HEPES pH 7.4, 50 mM NaCl, 37 °C

| Binder | rate of ATP hydrolysis of WT NSF hexamers with soluble SNARE complex (300 nM) and αSNAP (1 μM) against free NSF [1] [fold] | K0.5 [2] [µM] |
| --- | --- | --- |
| N-ethylmaleimide sensitive factor (NSF), wild-type hexamer, P18708 1-744 (enzyme) MAGRSMQAARCPTDELSLSNCAVVSEKDYQSGQHVIVRTSPNHKYIFTLRTHPSVVPGSVAFSLPQRKWAGLSIGQEIEVALYSFDKAKQCIGTMTIEIDFLQKKNIDSNPYDTDKMAAEFIQQFNNQAFSVGQQLVFSFNDKLFGLLVKDIEAMDPSILKGEPASGKRQKIEVGLVVGNSQVAFEKAENSSLNLIGKAKTKENRQSIINPDWNFEKMGIGGLDKEFSDIFRRAFASRVFPPEIVEQMGCKHVKGILLYGPPGCGKTLLARQIGKMLNAREPKVVNGPEILNKYVGESEANIRKLFADAEEEQRRLGANSGLHIIIFDEIDAICKQRGSMAGSTGVHDTVVNQLLSKIDGVEQLNNILVIGMTNRPDLIDEALLRPGRLEVKMEIGLPDEKGRLQILHIHTARMRGHQLLSADVDIKELAVETKNFSGAELEGLVRAAQSTAMNRHIKASTKVEVDMEKAESLQVTRGDFLASLENDIKPAFGTNQEDYASYIMNGIIKWGDPVTRVLDDGELLVQQTKNSDRTPLVSVLLEGPPHSGKTALAAKIAEESNFPFIKICSPDKMIGFSETAKCQAMKKIFDDAYKSQLSCVVVDDIERLLDYVPIGPRFSNLVLQALLVLLKKAPPQGRKLLIIGTTSRKDVLQEMEMLNAFSTTIHVPNIATGEQLLEALELLGNFKDKERTTIAQQVKGKKVWIGIKKLLMLIEMSLQMDPEYRVRKFLALLREEGASPLDFD | 24 |  |
| free NSF (NSF hexamer) (Cricetulus griseus) (protein, N-terminal His-tag cut by thrombin, pET28a) MAGRSMQAARCPTDELSLSNCAVVSEKDYQSGQHVIVRTSPNHKYIFTLRTHPSVVPGSVAFSLPQRKWAGLSIGQEIEVALYSFDKAKQCIGTMTIEIDFLQKKNIDSNPYDTDKMAAEFIQQFNNQAFSVGQQLVFSFNDKLFGLLVKDIEAMDPSILKGEPASGKRQKIEVGLVVGNSQVAFEKAENSSLNLIGKAKTKENRQSIINPDWNFEKMGIGGLDKEFSDIFRRAFASRVFPPEIVEQMGCKHVKGILLYGPPGCGKTLLARQIGKMLNAREPKVVNGPEILNKYVGESEANIRKLFADAEEEQRRLGANSGLHIIIFDEIDAICKQRGSMAGSTGVHDTVVNQLLSKIDGVEQLNNILVIGMTNRPDLIDEALLRPGRLEVKMEIGLPDEKGRLQILHIHTARMRGHQLLSADVDIKELAVETKNFSGAELEGLVRAAQSTAMNRHIKASTKVEVDMEKAESLQVTRGDFLASLENDIKPAFGTNQEDYASYIMNGIIKWGDPVTRVLDDGELLVQQTKNSDRTPLVSVLLEGPPHSGKTALAAKIAEESNFPFIKICSPDKMIGFSETAKCQAMKKIFDDAYKSQLSCVVVDDIERLLDYVPIGPRFSNLVLQALLVLLKKAPPQGRKLLIIGTTSRKDVLQEMEMLNAFSTTIHVPNIATGEQLLEALELLGNFKDKERTTIAQQVKGKKVWIGIKKLLMLIEMSLQMDPEYRVRKFLALLREEGASPLDFD |  | 9 ± 2 |
